These results are taken from US20080139456A1, “Macrocyclic Sh2 Domain Binding Inhibitors” (priority 2005, published 2008).

In experiment [1] the target is Biotinylated Grb2 SH2 domain protein (UniProt P62993). Nature of the experiment: SPR (Biacore S51), steady state, compound injected over immobilized b-Grb2 SH2 domain. For orientation: Surface plasmon resonance follows binding to a sensor surface in real time, without labels.
Experiment [2] has as its target T1, Grb2 SH2 domain protein (Homo sapiens, UniProt P62993).
T1 construct: made in house
The experiment is described as follows: Biosensor (Biacore S51 surface plasmon resonance) direct binding to chip-bound Grb2 SH2 domain protein. The settings on record: binding affinity to Grb2 SH2 domain protein, complex binding kinetics. On the procedure: Biosensor Analysis: Binding experiments were performed on a Biacore S51 instrument (Biacore Inc., Piscataway N.J.). All Biotinylated Grb2 SH2 domain proteins (b-Grb2) were expressed and purified (Protein Expression Laboratory and The Protein Chemistry Laboratory, SAIC—Frederick). The b-Grb2 was immobilized onto carboxymethyl 5′ dextran surface (CM5 sensor chip, Biacore Inc.) by amine coupling. The lyophilized b-Grb2 was reconstituted in fifty percent DMSO in H2O to make a stock solution of 1 mg/mL and stored at −80° C. A 1: 12.5 dilution of b-Grb2 was used for immobilization, by dilution in acetate buffer pH-5.0, with 5% DMSO. 1×PBS (phosphate buffered saline, pH 7.4) was used as the running buffer.
An immobilization wizard was used to optimize the immobilization target. For b-Grb2, 2500-5000 resonance units (RU) of protein were captured on the CM5 sensor chip. Small molecules were serially diluted in running buffer to the concentrations (1.25 nM-1500 nM) as indicated in each sensorgram and injected at 25° C. at a flow rate of 30 μL/min for 2 minutes. Varying concentrations of small molecules were injected in increasing concentrations, and every injection was performed in duplicate within each experiment. […]

For orientation: Kd means the concentration at which binding is half-saturated.

Where two headings read alike, the source gives them in different places.

Sequence of Biotinylated Grb2 SH2 domain protein (P62993 60-152 limits assumed): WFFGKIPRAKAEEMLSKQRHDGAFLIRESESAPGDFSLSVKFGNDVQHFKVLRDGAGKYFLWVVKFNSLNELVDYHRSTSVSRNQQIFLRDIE
T1 sequence (P62993 60-152 limits assumed): as above

Take “[(2R)-3-(4-Dihydroxyphosphonomethyl)phenyl-2-(hydroxylcarbonylmethyl)propionyl]-Ac6c-L-Asn-Gly-(1-naphthyl)methyl amide (2) (peptide)”: the Kd in experiment [1] was found to be 5610 nM.
In the case of “Cyclo{[(2R,3R)-3-(4-dihydroxyphosphonomethyl)phenyl-2-(hydroxycarbonylmethyl)pent-4-enyl]-Ac6c-L-Asn-D-AllylGly}-(1-naphthyl)methyl amide (4) (peptide)”, the Kd in experiment [1] was found to be 54.9 nM.
Consider “Cyclo{[(2R,3R)-3-(4-dihydroxyphosphonomethyl)phenyl-2-(hydroxycarbonylmethyl)pent-4-enyl]-Ac6c-L-Asn-L-AllylGly}-(1-naphthyl)methyl amide (3) (peptide)”, for which the Kd in experiment [1] is 22.7 nM.
Consider `NC(=O)CC1NC(=O)C2(CCCCC2)NC(=O)[C@@H](CC(=O)O)[C@@H](c2ccc(CP(=O)(O)O)cc2)/C=C/CCC2(CCCCC2)CNC1=O` (some centres unmarked) [compound 24], for which the Kd was found to be 9.3 ± 0.1 nM in experiment [2] (first of two Kd values, read-out: Kd (complex binding kinetics, first value)) and 21300 ± 500 nM in experiment [2] (second of two Kd values, read-out: Kd (complex binding kinetics, second value)).
